The target in assay [1] is T1, human MHC class II DR protein (DRA*0101/DRB1*0401), purified from PRIESS cells (human, UniProt P01903 26-254; P01911 30-266, limits assumed).
T1 construct: mature; also called HLA-DR protein; MHCII
T1 MHC II alpha: not shown
T1 MHC II beta: not shown
In words: SPR (BIAcore), Fab, chip density 500 RU MHCII. (Surface plasmon resonance follows binding to a sensor surface in real time, without labels.)

Assay [2] concerns the target T2, BSA (bovine, UniProt P02769 25-607).
T2 construct: negative control antigen; also called bovine serum albumine
In words: ELISA, coated antigen.

Assay [3] deals with T3, HLA-DR (DRA*0101/DRB1*0401) on PRIESS cells (human, UniProt P01903 26-254; P01911 30-266).
T3 MHC II alpha: not shown
T3 MHC II beta: not shown
The assay can be described thus: cell-based or functional assay.

For assay [4], the target named is T1, human MHC class II DR protein …. In words: BiaCore, Fab.
Assay [5] has the same target. In words: ELISA, coated antigen, Fab 100 ng/well, read at 370 nm. As for the experimental part: After washing in PBS the anti-human IgG F(ab')_2-peroxidase-conjugate at a 1:10,000 dilution in TBS (supplemented with 5% w/v non-fat drymilk/0.05% v/v Tween 20) was added to each well for 1 h. Final washes were carried out in PBS followed the addition the substrate POD (Roche).
(In general: In an ELISA, binding on a coated surface is turned into a signal by an enzyme label.)

Assay [6] has as its target T4, chimeric 0401-IE class II molecule on cells of transgenic mice (human/murine chimera). In words: cell-based or functional assay.
Assay [7] has as its target T1, human MHC class II DR protein …. The assay can be described thus: SPR (BIAcore), MHCII on CM5 chip.
Assay [8] has as its target HLA-DR on LG-2 cells (human). In words: cell-based or functional assay.
For assay [9], the target named is T1, human MHC class II DR protein …. In words: SPR (BIAcore), MHCII on CM5 chip.
Assay [10] addresses T4, chimeric 0401-IE class II molecule on …. The assay can be described thus: cell-based or functional assay. The source holds these as a separate data set.
The target in assay [11] is T2, BSA. In words: ELISA, purified coated protein, OD at 370 nm minus background.
For assay [12], the target named is T1, human MHC class II DR protein …. In words: SPR (BIAcore), IgG4 over MHCII on CM5 chip.
Assay [13] has the same target. In words: BiaCore, IgG4. How it is done:
The affinities for anti-HLA antibody fragments of the invention were measured as follows. All measurements were conducted in HBS buffer (20 mM HEPES, 150 mM NaCl, pH 7.4) at a flow rate of 20 µl/min at 25° C. on a BIAcore3000 instrument (Biacore AB, Sweden). MHC class II DR protein (prepared as example 1) was diluted in 100 mM sodium acetate pH 4.5 to a concentration of […], and coupled to a CM5 chip (Biacore AB) using standard EDC-NHS coupling chemistry with subsequent ethanolamine treatment as manufacturers directions. The coating density of MHCII was adjusted to between 500 and 4000 RU. Affinities were measured by injection of 5 different concentrations of the different antibodies and using the standard software of the Biacore instrument. Regeneration of the coupled surface was achieved using 10 mM glycine pH 2.3 and 7.5 mM NaOH.

The target in assay [14] is HLA-DR on KARPAS-299 cells (human). In words: cell-based or functional assay.
Assay [15] deals with HLA-DR on HDLM-2 cells (human). The assay can be described thus: cell-based or functional assay.
Assay [16] deals with HLA-DR on BJAB cells (human). The assay can be described thus: cell-based or functional assay.
The target in assay [17] is HLA-DR on BONNA-12 cells (human). The assay can be described thus: cell-based or functional assay.
The target of assay [18] is HLA-DR on SR-786 cells (human). In words: cell-based or functional assay.
Assay [19] has as its target HLA-DR on LP-1 cells (human). The assay can be described thus: cell-based or functional assay.
The target of assay [20] is HLA-DR on RPMI-8226 cells (human). The assay can be described thus: cell-based or functional assay.
For assay [21], the target named is HLA-DR on L1236 cells (human). The assay can be described thus: cell-based or functional assay.
Assay [22] concerns the target T3, HLA-DR (DRA*0101/DRB1*0401) on PRIESS …. In words: cell-based or functional assay.
Assay [23] addresses HLA-DR on L-428 cells (human). In words: cell-based or functional assay.
Assay [24] addresses HLA-DR on ARH-77 cells (human). In words: cell-based or functional assay.
Assay [25] has as its target HLA-DR on HC-1 cells (human). In words: cell-based or functional assay.
Assay [26] deals with HLA-DR on GRANTA-519 cells (human). In words: cell-based or functional assay.
Assay [27] deals with HLA-DR on MHH-CALL-4 cells (human). The assay can be described thus: cell-based or functional assay.
For assay [28], the target named is HLA-DR on EOL-1 cells (human). The assay can be described thus: cell-based or functional assay.
Assay [29] concerns the target HLA-DR on KARPAS-422 cells (human). The assay can be described thus: cell-based or functional assay.
The target of assay [30] is HLA-DR on KM-H2 cells (human). In words: cell-based or functional assay.
Assay [31] deals with HLA-DR on DOHH-2 cells (human). The assay can be described thus: cell-based or functional assay.
Assay [32] addresses HLA-DR on MHH-PREB-1 cells (human). In words: cell-based or functional assay.
Assay [33] has as its target HLA-DR on RAJI cells (human). The assay can be described thus: cell-based or functional assay.
Assay [34] has as its target HLA-DR on MN-60 cells (human). In words: cell-based or functional assay.
For assay [35], the target named is HLA-DR on L-363 cells (human). The assay can be described thus: cell-based or functional assay.
Assay [36] addresses HLA-DR on HD-MY-Z cells (human). In words: cell-based or functional assay.
For assay [37], the target named is HLA-DR on NALM-1 cells (human). The assay can be described thus: cell-based or functional assay.

T2 sequence (P02769 25-607 limits assumed): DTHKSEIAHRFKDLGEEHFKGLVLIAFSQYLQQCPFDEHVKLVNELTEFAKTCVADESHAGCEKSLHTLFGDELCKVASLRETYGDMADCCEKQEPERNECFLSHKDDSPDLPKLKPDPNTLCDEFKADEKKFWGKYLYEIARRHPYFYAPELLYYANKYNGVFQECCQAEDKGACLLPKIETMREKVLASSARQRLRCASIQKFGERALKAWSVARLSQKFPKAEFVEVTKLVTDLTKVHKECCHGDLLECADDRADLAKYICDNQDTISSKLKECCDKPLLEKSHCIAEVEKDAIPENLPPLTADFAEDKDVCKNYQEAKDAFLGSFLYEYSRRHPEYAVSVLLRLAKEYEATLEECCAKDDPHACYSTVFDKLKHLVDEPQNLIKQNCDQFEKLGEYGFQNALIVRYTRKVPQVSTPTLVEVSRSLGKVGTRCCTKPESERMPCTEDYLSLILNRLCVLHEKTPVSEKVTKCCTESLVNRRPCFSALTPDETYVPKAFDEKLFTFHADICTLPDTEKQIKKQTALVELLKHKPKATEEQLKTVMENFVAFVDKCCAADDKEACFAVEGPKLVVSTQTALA

B1: MS-GPC-1 Fab (Fab, V domains shown)
VH: QVQLKESGPALVKPTQTLTLTCTFSGFSLSTSGVGVGWIRQPPGKALEWLALIDWDDDKYYSTSLKTRLTISKDTSKNQVVLTMTNMDPVDTATYYCARQYGHRGGFDHWGQGTLVTVSS
VL: DIVLTQPPSVSGAPGQRVTISCSGSSSNIGSNYVSWYQQLPGTAPKLLIYDNNQRPSGVPDRFSGSKSGTSASLAITGLQSEDEADYYCQSYDFNESVFGGGTKLTVLG
notes: Fab from pMx9_Fab: VH-CH1 with FLAG tag and STREP tag II, VL-CL; VH residue 1 is Q in Fab; also called 17-Fab; 17
Broadly, the Kd is the free concentration of one partner at which half of the binding sites on the other are occupied at equilibrium, for simple one-to-one binding. For orientation: koff means a measure of how fast the partners let go of each other. The low end stands for a long-lived complex, the high end for a short-lived complex. One may read the kon as the rate constant with which the complex forms. Read a low kon as slow association. Consider B1, for which, in assay [1], the Kd stood at 820 nM, the koff was found to be 0.053 s⁻¹ and the kon turned out to be 63900 M⁻¹ s⁻¹. For the same molecule, the binding result in [2] is recorded as “no binding”. In assay [3], the “EC50 of cell killing, cross-linked Fab, bivalent agent” value (“EC50 of cell killing … bivalent agent” below) is 54 nM.

B2: MS-GPC-8-27-41 Fab (Fab, V domains shown)
VH: QVQLKESGPALVKPTQTLTLTCTFSGFSLSTSGVGVGWIRQPPGKALEWLALIDWDDDKYYSTSLKTRLTISKDTSKNQVVLTMTNMDPVDTATYYCARSPRYRGAFDYWGQGTLVTVSS
VL: DIVLTQPPSVSGAPGQRVTISCSGSESNIGNNYVQWYQQLPGTAPKLLIYDNNQRPSGVPDRFSGSKSGTSASLAITGLQSEDEADYYCQSYDMNVHVFGGGTKLTVLG
notes: Fab: VH-CH1 with FLAG tag and STREP tag II, VL-CL; VH residue 1 is Q in Fab; also called 1D09C3
In assay [4], B2 yielded a Kd of 2.93 nM, a koff of 0.00049 s⁻¹ and a kon of 167000 M⁻¹ s⁻¹. In [5], this molecule had an ELISA signal of 1.52. In assay [6], the “IC50 of inhibition of IL-2 secretion from T-Hyb 1 cells” value was 3.6 nM (half the concentration of the Fab) and the “Maximum inhibition(%) of IL-2 secretion” value amounted to 100%. Also, in [7], the Kd stood at 2.93 nM, the off-rate constant (koff) was found to be 0.00049 s⁻¹ and the kon was 167000 M⁻¹ s⁻¹. Moreover, the “EC50 of cell killing … bivalent agent” value in assay [3] was 7.7 nM. In addition, in assay [8], the “EC50 of cell killing … bivalent agent” value is 7.2 nM. Moreover, in assay [9], the Kd came to 2.9 nM, the koff was 0.00049 s⁻¹ and the kon came out at 170000 M⁻¹ s⁻¹.

B3: MS-GPC-8-27-41 IgG4 (antibody, V domains shown)
VH: QVQLKESGPALVKPTQTLTLTCTFSGFSLSTSGVGVGWIRQPPGKALEWLALIDWDDDKYYSTSLKTRLTISKDTSKNQVVLTMTNMDPVDTATYYCARSPRYRGAFDYWGQGTLVTVSS
VL: DIVLTQPPSVSGAPGQRVTISCSGSESNIGNNYVQWYQQLPGTAPKLLIYDNNQRPSGVPDRFSGSKSGTSASLAITGLQSEDEADYYCQSYDMNVHVFGGGTKLTVLG
notes: also called 1D09C3; IgG form of MS-GPC-8-27-41
On to B3, for which the “IC50 value for inhibition of T cell proliferation” value in [10] stood at 20 nM. For the same molecule, in assay [11], the binding result is recorded as “no binding”. Besides, in assay [6], the “IC50 of inhibition of IL-2 secretion from T-Hyb 1 cells” value was 0.28 nM. Further, the “Maximum inhibition(%) of IL-2 secretion” value in assay [6] was 100%. The “EC50 of cell killing, IgG4” value in [3] worked out at 1.1 nM. The results for the Kd in assay [12] and in assay [13] were 0.31 nM and 0.6 nM, respectively. Further, the koff is 3.1e-05 s⁻¹ in assay [12] and 0.00041 s⁻¹ in assay [13]. The molecule further returned a kon in assay [12] of 110000 M⁻¹ s⁻¹. Also, the “% Killing by mAb, 50 nM, 4 h” value in [14] was determined as 82%; in assay [15] it was 88%; in [16], 71%; in assay [17] it was 92%; in assay [18] it was 53%; in assay [19] it was 73%. The “% Killing by mAb, 50 nM, 4 h” value in [20] came out at 29%; in assay [21] it was 63%; in assay [22] it was 88%; in [23] it was 91%; in [24], 85%; in assay [25], 93%. Besides, the “% Killing by mAb, 50 nM, 4 h” value in [26] stood at 78%; in assay [27], 63%; in [28], 69%; in assay [29] it was 66%; in assay [30], 86%; in assay [31], 59%. The “% Killing by mAb, 50 nM, 4 h” value in [32] turned out to be 4%; in assay [33], 84%; in assay [34], 69%; in assay [35] it was 26%; in assay [36], 69%; in [37], 82%.

B4: MS-GPC-10 Fab (Fab, V domains shown)
VH: QVQLKESGPALVKPTQTLTLTCTFSGFSLSTSGVGVGWIRQPPGKALEWLALIDWDDDKYYSTSLKTRLTISKDTSKNQVVLTMTNMDPVDTATYYCARQLHYRGGFDLWGQGTLVTVSS
VL: DIVLTQPPSVSGAPGQRVTISCSGSSSNIGSNYVSWYQQLPGTAPKLLIYDNNQRPSGVPDRFSGSKSGTSASLAITGLQSEDEADYYCQSYDLTMGVFGGGTKLTVLG
notes: Fab from pMx9_Fab: VH-CH1 with FLAG tag and STREP tag II, VL-CL; VH residue 1 is Q in Fab; also called E6-Fab; E6
In assay [1], B4 gave a Kd of 2860 nM, a koff of 0.063 s⁻¹ and a kon of 22000 M⁻¹ s⁻¹. The binding result in [2] is “no binding”. In addition, in assay [3], the “EC50 of cell killing … bivalent agent” value stood at 33 nM.
